Among the data in article PMC8444450 (2021) are Kd and koff values, retold here.

The labels stand for the following.
B1: sybody Sb14 (VHH)
VHH: QVQLVESGGGLVQAGGSLRLSCAASGFPVQAREMEWYRQAPGKEREWVAAIKSTGTYTAYAYSVKGRFTISRDNAKNTVYLQMNSLKPEDTAVYYCYVYVGSSYIGQGTQVTVSA
B2: sybody Sb16 (VHH)
VHH: QVQLVESGGGLVQAGGSLRLSCAASGFPVAYKTMWWYRQAPGKEREWVAAIESYGIKWTRYADSVKGRFTISRDNAKNTVYLQMNSLKPEDTAVYYCIVWVGAQYHGQGTQVTVSA
B3: sybody Sb15 (VHH)
VHH: QVQLVESGGGLVQAGGSLRLSCAASGFPVKNFEMEWYRKAPGKEREWVAAIQSGGVETYYADSVKGRFTISRDNAKNTVYLQMNSLKPEDTAVYYCFVYVGRSYIGQGTQVTVS
B4: sybody Sb68 (VHH)
VHH: QVQLVESGGGSVQAGGSLRLSCAASGSISSITYLGWFRQAPGKEREGVAALITVNGHTYYADSVKGRFTVSLDNAKNTVYLQMNSLKPEDTALYYCAAAAWGYAWPLHQDDYWYWGQGTQVTVSA

The target in the first assay is T1, SARS-CoV-2 spike receptor-binding domain (amino acids 333–529), bacteria-expressed and refolded (SARS-CoV-2, UniProt P0DTC2 333-529). Nature of the assay: SPR. In general terms: In SPR one partner is held on a chip, and binding of the other changes the refractive index at the surface.
In turn, B1 showed a dissociation constant Kd of 13.8 nM. B2: the affinity, expressed as Kd, was 40.6 nM.

In the next assay the target is T1, SARS-CoV-2 spike receptor-binding …. The experiment in a line: SPR. The source holds these as a separate data set.
B3 registered a koff of 0.011 s⁻¹. In turn, B1 came in with an off-rate (koff) of 0.007 s⁻¹. The molecule B2 displayed a koff of 0.02 s⁻¹.

In the case of B4, the koff came out at 0.023 s⁻¹.

The Kd is the equilibrium constant for the complex coming apart. One may read the koff as the first-order rate constant of dissociation. A low value points to slow dissociation.
